Changes are numbered by the printed parent chain. In names and notes the source's numbering stands. Each block holds one binder with its values, some of them ahead of it.
Assays:
[1] = target: T1, human DR3, full-length, expressed on HEK293 NFkB-luciferase reporter cells (human, UniProt Q93038 25-417); assay: cell-based or functional assay
T1 sequence: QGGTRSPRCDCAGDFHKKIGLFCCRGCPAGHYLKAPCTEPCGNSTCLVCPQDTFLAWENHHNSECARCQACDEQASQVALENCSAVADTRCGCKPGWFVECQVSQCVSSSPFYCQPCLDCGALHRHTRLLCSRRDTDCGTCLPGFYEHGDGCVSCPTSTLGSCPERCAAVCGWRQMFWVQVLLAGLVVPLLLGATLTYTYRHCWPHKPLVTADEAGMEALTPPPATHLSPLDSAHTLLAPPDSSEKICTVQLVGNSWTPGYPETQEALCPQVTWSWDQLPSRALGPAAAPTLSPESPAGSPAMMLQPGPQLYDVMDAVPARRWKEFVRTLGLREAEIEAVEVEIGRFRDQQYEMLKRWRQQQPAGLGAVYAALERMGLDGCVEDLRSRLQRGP

[2] = target: T2, mouse TL1A, soluble, E. coli-expressed, residues 76-252 of SEQ ID NO:250 (mouse, UniProt Q5UBV8 76-252); assay: SPR 25C, steady state
T2 construct: with or without N-terminal Met; also called mTL1A (E. Coli)
T2 sequence: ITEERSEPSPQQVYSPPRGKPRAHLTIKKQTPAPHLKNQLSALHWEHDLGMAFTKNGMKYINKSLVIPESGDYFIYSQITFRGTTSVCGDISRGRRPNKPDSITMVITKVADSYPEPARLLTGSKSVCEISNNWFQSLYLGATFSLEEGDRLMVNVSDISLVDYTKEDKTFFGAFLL
Experimental: Measurements were conducted on a T100 BIACORE™ instrument. […] Kinetic association (kₐ) and dissociation (kd) rate constants were determined by fitting the data to a 1:1 binding model using BIAevaluation 4.1 curve fitting software (BIAcore Life Sciences). Molar concentrations of TL1A/Fhm used in the data fitting assumed a monomeric state for TL1A in solution. […]

[3] = target: T3, cynomolgus monkey TL1A, soluble, CHO-expressed, residues 72-251 of SEQ ID NO:248 with N-terminal His6-tag (cynomolgus monkey (Macaca fascicularis), UniProt O95150 72-251 (human entry)); assay: ELISA, blocks MfTL1A (500 pM) binding hDR3-Fc
T3 construct: also called MfTL1A; MfTL1A (CHO)
T3 chain: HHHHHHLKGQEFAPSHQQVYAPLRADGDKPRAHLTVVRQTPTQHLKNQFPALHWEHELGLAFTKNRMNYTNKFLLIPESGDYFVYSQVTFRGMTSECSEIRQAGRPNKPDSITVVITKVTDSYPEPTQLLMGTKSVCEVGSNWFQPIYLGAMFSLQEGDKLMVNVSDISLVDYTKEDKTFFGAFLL
Experimental: (§1) The ability of antibodies to block human TL1A binding to its cognate receptors, the DR3 and DcR3 receptors, was measured using a competition sandwich ELISA. In addition, blocking of a human TL1A variant FHM (human TL1A Q167R) and the cynomolgus monkey (Macaca fascicularis) TL1A (MfTL1A) protein binding to the human DR3 or DcR3 receptors was measured in the same manner. Constant amounts of biotinylated human TL1A or FHM (both expressed with a 6-His tag in CHO cells) or biotinylated MfTL1A (expressed in CHO cells) were separately titrated with varying amounts of antibodies. The antibody-protein complexes were incubated in solution (1 hr, 25° C.) and then transferred to microtiter plates coated with human DR3 (hDR3) or human DcR3 (hDcR3) expressed as human IgG1 Fc fusion proteins. After one hour at 25° C. the wells were washed, and bound human or monkey TL1A was detected with streptavidin conjugated with horseradish peroxidase (HRP). Wells were developed with a TMB solution to produce a colorimetric reaction and quenched with aqueous sulfuric acid before reading absorbance at 450 nm on a Perkin-Elmer Victor X5 plate reader. A sigmoidal dose-response curve was fit to the data using the Prism™ data analysis package. […] Both fully human anti-hTL1A mAbs and comparator antibodies, i.e., control mAb1 (an anti-hTL1A antibody with heavy and light chain variable domains having the amino acid sequences corresponding to SEQ ID NOS:21 and 27, respectively, of US 2009/0280116) and control mAb3 (an anti-hTL1A antibody with heavy and light chain variable domains having the amino acid sequences corresponding to SEQ ID NOS:57 and 48, respectively, of US 2009/0280116), were included in the study. NB: No binding under the conditions tested; NT: Not tested. Concentrations of biotinylated soluble ligands: (1) 150 pM; (2) 500 pM; (3) 10 pM; and (4) 50 pM.

[4] = target: T3, cynomolgus monkey TL1A, soluble, …; assay: ELISA, blocks MfTL1A (50 pM) binding hDcR3-Fc
Experimental: as §1

[5] = target: T4, Fhm, hTL1A(Q167R), soluble, E. coli-expressed, residues 72-251 of SEQ ID NO:246 (human, UniProt O95150 72-251); assay: SPR 25C, mAb captured
T4 construct: with or without N-terminal Met
T4 chain: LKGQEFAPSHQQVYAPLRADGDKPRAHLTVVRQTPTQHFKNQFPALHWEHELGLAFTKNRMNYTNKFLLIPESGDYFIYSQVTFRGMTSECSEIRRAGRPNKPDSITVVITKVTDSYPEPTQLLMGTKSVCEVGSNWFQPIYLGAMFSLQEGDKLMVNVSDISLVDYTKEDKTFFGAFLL
Experimental: (§2) Measurements were conducted on a T100 BIACORE™ instrument. […] Kinetic association (kₐ) and dissociation (kd) rate constants were determined by fitting the data to a 1:1 binding model using BIAevaluation 4.1 curve fitting software (BIAcore Life Sciences). Molar concentrations of TL1A/Fhm used in the data fitting assumed a monomeric state for TL1A in solution. Binding dissociation equilibrium constants (KD) and dissociative half-lives (t_{1/2}) were calculated from the kinetic rate constants as: KD (M)=kd/kₐ; and t_{1/2} (min)=[In2/(60*kd)].

[6] = target: T5, cynomolgus monkey TL1A, soluble, E. coli-expressed, residues 72-251 of SEQ ID NO:248 (cynomolgus monkey (Macaca fascicularis), UniProt O95150 72-251 (human entry)); assay: SPR 25C, mAb captured
T5 construct: with or without N-terminal Met; also called MfTL1A (E. Coli)
T5 chain: T4 chain with F39L, I78V, R96Q
Experimental: as §2

[7] = target: T5, cynomolgus monkey TL1A, soluble, E. …; assay: SPR 37C, mAb captured
Experimental: as §2

[8] = target: T6, human TL1A, soluble, CHO-expressed, residues 72-251 of SEQ ID NO:244 with N-terminal His6-tag (human, UniProt O95150 72-251); assay: ELISA, blocks hTL1A (150 pM) binding hDR3-Fc
T6 construct: also called hTL1A; hTL1A (CHO)
T6 sequence: T3 chain with L45F, V84I
Experimental: as §1

[9] = target: T6, human TL1A, soluble, CHO-expressed, …; assay: ELISA, blocks hTL1A (10 pM) binding hDcR3-Fc
Experimental: as §1

[10] = target: T7, Fhm, hTL1A(Q167R), soluble, CHO-expressed, residues 72-251 of SEQ ID NO:246 (human, UniProt O95150 72-251); assay: ELISA, blocks FHM (10 pM) binding hDcR3-Fc; blocking of FHM binding to DcR3
T7 construct: also called Fhm (CHO); FHM (CHO)
T7 chain: T3 chain with L45F, V84I, Q102R
Experimental: as §1

[11] = target: T7, Fhm, hTL1A(Q167R), soluble, …; assay: ELISA, blocks FHM (10 pM) binding hDcR3-Fc
Experimental: as §1

[12] = target: T7, Fhm, hTL1A(Q167R), soluble, …; assay: ELISA, blocks FHM (150 pM) binding hDR3-Fc
Experimental: as §1

B1: full length human TL1A expressed on HEK293 cells (ligand)
chain: MAEDLGLSFGETASVEMLPEHGSCRPKARSSSARWALTCCLVLLPFLAGLTTYLLVSQLRAQGEACVQFQALKGQEFAPSHQQVYAPLRADGDKPRAHLTVVRQTPTQHFKNQFPALHWEHELGLAFTKNRMNYTNKFLLIPESGDYFIYSQVTFRGMTSECSEIRQAGRPNKPDSITVVITKVTDSYPEPTQLLMGTKSVCEVGSNWFQPIYLGAMFSLQEGDKLMVNVSDISLVDYTKEDKTFFGAFLL
EC50 (cells), NFkB-luciferase reporter [1]: 23500 cells

B2: full-length cynomolgus monkey TL1A expressed on HEK293 cells (ligand)
chain: B1 chain with R34C, F69L, A71D, F110L, I149V
EC50 (cells), NFkB-luciferase reporter [1]: 8460 cells

B3: full-length Fhm, human TL1A(Q167R), expressed on HEK293 cells (ligand)
chain: B1 chain with Q167R
EC50 (cells), NFkB-luciferase reporter [1]: 47900 cells

Now from value to binder:

binding result [2]: no binding (tested: up to 100 nM) | IC50 [3]: 0.061 nM | IC50 [4]: 0.149 nM | binding result [5]: no binding (tested: up to 100 nM) | Kd [6]: 0.546 nM | t1/2 [6]: 54 min | Kd [7]: 1.5 nM | t1/2 [7]: 14 min | IC50 [8]: 0.037 nM | IC50 [9]: 0.013 nM | IC50 [10]: 0.234 nM
B4: H2M1681N (antibody, V domains shown)
VH: EVQLLESGGGLVQPGKSLRLSCAVSGFTFSTYGMNWVRQAPGKGLEWVSSISGTGRTTYHADSVQGRFTVSRDNSKNILYLQMNSLRADDTAVYFCTKERGDYYYGVFDYWGQGTLVTVSS
VL: DIQMTQSPSTLSASVGDRVTITCRASQTISSWLAWYQQTPEKAPKLLIYAASNLQSGVPSRFSGSGSGTEFTLTISSLQPDDFATYYCQQYHRSWTFGQGTKVEIT

binding result [2]: no binding (tested: up to 100 nM) | IC50 [3]: 0.013 nM | IC50 [4]: 1.14 nM | binding result [5]: no binding (tested: up to 100 nM) | Kd [6]: 0.345 nM | t1/2 [6]: 67 min | Kd [7]: 0.439 nM | t1/2 [7]: 36 min | IC50 [8]: 0.006 nM | IC50 [9]: 0.012 nM | IC50 [10]: 2.24 nM
B5: H2M1805N (antibody, V domains shown)
VH: QVQLQQWGAGLLKPSETLSLTCAVYGGSFTGFYWSWIRQPPGKGLEWIGEINHRGNTNYNPSLKSRVTMSVDTSKNQFSLNMISVTAADTAMYFCASPFYDFWSGSDYWGQGTLVTVSS
VL: DIMLTQTPLTSPVTLGQPASISCKSSQSLVHSDGNTYLSWLQQRPGQPPRLLFYKISNRFSGVPDRFSGSGAGTDFTLKISRVEAEDVGVYYCMQATQFPLTFGGGTKVEIK
notes: chimeric hybridoma antibody: human variable regions, mouse constant regions (mouse Fc)

IC50 [11]: 0.666 nM | binding result [2]: no binding (tested: up to 100 nM) | IC50 [3]: 0.137 nM | IC50 [4]: 0.776 nM | IC50 [12]: 0.249 nM | Kd [5]: 0.451 nM | t1/2 [5]: 57 min | Kd [6]: 1.25 nM | t1/2 [6]: 37 min | Kd [7]: 1 nM | t1/2 [7]: 30 min | IC50 [8]: 0.154 nM | IC50 [9]: 0.89 nM
B6: H2M1817N (antibody, V domains shown)
VH: QVQLQQWGAGLLKPSETLSLTCAVSGGSFSDYFWTWIRQPPGKGLEWIGEISHSGRTNYNPSLKSRVTISVDTSMSQFSLKMTSVTAADSAVYYCARDYPNWVFDYWGQGTLVTVSS
VL: EIELTQSPGTLSLSPGEGATLSCRASQSVFNSYLAWYQQKPGQAPRLLIYGASRRATGIPDRFSGSGSGTDFTLTISRLEPGDFAVYFCQQYGNSPLTFGGGTKVEIK
notes: as for B5

Reference: patent publication US20140120109A1 (Regeneron, published 2014)
